Experimental data as given in the supplement of paper PMC10567573.

B1: SCNN1D (parent)
chain: FYRLYQDLETHRLPCTSRCPRPCR

Variants of: B1
Assay: protein stability index of a GFP-peptide fusion (GPS, HEK-293T) (PSI 1-6); higher = more stable
Conditions: c terminus: a fixed tail appended
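Note: lentivirally expressed fusions sorted by FACS into six bins by GFP to DsRed ratio, PSI derived from sequencing read proportions per bin multiplied by bin number.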

Protein stability index of substitutions, site by site:
L8: P 2.75 | I 2.41 | Y 1.53 | H 2.97 | N 3.07 | F 2.58 | K 2.38 | C 2.08 | E 2.73 | A 2.38 | T 2.09 | M 2.02 | W 1.7 | V 2.16 | Q 2.11 | D 2.79 | S 2.47 | G 2.97 | R 2.22
E9: Y 1.5 | G 1.57 | T 1.65 | F 1.46 | H 2.25 | P 2.05 | I 2.06 | W 1.08 | S 1.94 | M 2.87 | A 2.06 | K 2.38 | R 1.58 | N 1.6 | C 1.66 | Q 1.83 | V 2.29 | L 2.8 | D 2.99
L4: N 3.29 | D 2.69 | W 2.59 | F 2.04 | K 3.68 | A 3.02 | G 3.51 | T 2.79 | C 1.56 | H 3.23 | R 2.49 | S 3.46 | I 2.41 | Q 3.24 | P 3.47 | Y 2.14 | E 4.13 | M 2.34
D7: L 1.76 | Y 1.66 | K 2.08 | V 1.98 | G 2.3 | E 2.3 | P 2.44 | R 2.89 | T 2.09 | N 1.89 | Q 1.48 | I 3.21 | S 1.98 | H 1.5 | C 1.72 | M 1.39 | W 3 | F 2.22 | A 1.32
Y5: T 2.8 | R 2.02 | H 2.92 | E 3.17 | I 1.76 | K 2.6 | G 3.16 | F 1.98 | S 2.57 | V 1.88 | A 4.45 | P 3.49 | C 2.13 | D 3.64 | N 3.29 | M 2.29 | L 3.17 | Q 2.81 | W 2.08
Q6: N 2.28 | A 2.21 | T 1.72 | S 2.23 | H 1.96 | P 1.38 | G 1.7 | E 3.63 | W 3.33 | R 1.96 | C 1.68 | F 1.79 | I 2.31 | D 2.52 | M 1.91 | L 1.54 | V 1.65 | K 1.35 | Y 1.52
R3: Q 2.71 | F 2.32 | P 3.04 | H 2.38 | T 2.65 | L 2 | A 2.32 | V 2.04 | C 1.98 | I 1.95 | E 2.63 | K 2.58 | S 2.42 | D 2.71 | N 2.22 | M 2.09 | G 2.65 | Y 1.66
Y2: W 2.75
H11: I 1.39 | D 2.24 | L 1.95 | V 1.98 | P 2 | Q 2.37 | T 2.79 | N 1.93 | K 1.96 | M 1.74 | C 2.62 | A 2.31 | F 1.64 | S 2.21 | E 2.31 | R 2.48
T10: H 2.34 | L 2.29 | K 2.47 | E 2.31 | G 2.19 | C 1.94 | W 2.05 | V 1.52 | P 2.03 | D 2.82 | A 2.27 | M 1.86 | R 2.88 | Q 2.3 | S 1.6 | I 2.44 | N 2.4 | Y 1.6 | F 1.21
